Earlier results as cited in US8460910B2 (Illumina Cambridge Limited, priority 2003, dated 2013).

Tested on: ddNTPs
Conditions: cited from earlier work

B1: A486Y variant of Pfu DNA polymerase: Pfu DNA polymerase with A486Y mutation (Evans et al. 2000) (protein, UniProt P61875 1-775, looked up, variant A486Y)
DNA polymerase: MILDVDYITEEGKPVIRLFKKENGKFKIEHDRTFRPYIYALLRDDSKIEEVKKITGERHGKIVRIVDVEKVEKKFLGKPITVWKLYLEHPQDVPTIREKVREHPAVVDIFEYDIPFAKRYLIDKGLIPMEGEEELKILAFDIETLYHEGEEFGKGPIIMISYADENEAKVITWKNIDLPYVEVVSSEREMIKRFLRIIREKDPDIIVTYNGDSFDFPYLAKRAEKLGIKLTIGRDGSEPKMQRIGDMTAVEVKGRIHFDLYHVITRTINLPTYTLEAVYEAIFGKPKEKVYADEIAKAWESGENLERVAKYSMEDAKATYELGKEFLPMEIQLSRLVGQPLWDVSRSSTGNLVEWFLLRKAYERNEVAPNKPSEEEYQRRLRESYTGGFVKEPEKGLWENIVYLDFRALYPSIIITHNVSPDTLNLEGCKNYDIAPQVGHKFCKDIPGFIPSLLGHLLEERQKIKTKMKETQDPIEKILLDYRQKYIKLLANSFYGYYGYAKARWYCKECAESVTAWGRKYIELVWKELEEKFGFKVLYIDTDGLYATIPGGESEEIKKKALEFVKYINSKLPGLLELEYEGFYKRGFFVTKKRYAVIDEEGKVITRGLEIVRRDWSEIAKETQARVLETILKHGDVEEAVRIVKEVIQKLANYEIPPEKLAIYEQITRPLHEYKAIGPHVAVAKKLAAKGVKIKPGMVIGYIVLRGDGPISNRAILAEEYDPKKHKYDAEYYIENQVLPAVLRILEGFGYRKEDLRYQKTRQVGLTSWLNIKKS
improvement of ratio of ddNTP/dNTP in sequencing ladders compared to wild type: 150 fold
